B1: JIP1, full length, YFP fragment F1 fusion (BiFC) [not stated] / F2-JNK1 (K55R) (BiFC) [human] (parent complex)
chain 1: MAERESGGLGGGAASPPAASPFLGLHIASPPNFRLTHDISLEEFEDEDLSEITDECGISLQCKDTLSLRPPRAGLLSAGGGGAGSRLQAEMLQMDLIDATGDTPGAEDDEEDDDEERAARRPGAGPPKAESGQEPASRGQGQSQGQSQGPGSGDTYRPKRPTTLNLFPQVPRSQDTLNNNSLGKKHSWQDRVSRSSSPLKTGEQTPPHEHICLSDELPPQSGPAPTTDRGTSTDSPCRRSTATQMAPPGGPPAAPPGGRGHSHRDRIHYQADVRLEATEEIYLTPVQRPPDAAEPTSAFLPPTESRMSVSSDPDPAAYPSTAGRPHPSISEEEEGFDCLSSPERAEPPGGGWRGSLGEPPPPPRASLSSDTSALSYDSVKYTLVVDEHAQLELVSLRPCFGDYSDESDSATVYDNCASVSSPYESAIGEEYEEAPRPQPPACLSEDSTPDEPDVHFSKKFLNVFMSGRSRSSSAESFGLFSCIINGEEQEQTHRAIFRFVPRHEDELELEVDDPLLVELQAEDYWYEAYNMRTGARGVFPAYYAIEVTKEPEHMAALAKNSDWVDQFRVKFLGSVQVPYHKGNDVLCAAMQKIATTRRLTVHFNPPSSCVLEISVRGVKIGVKADDSQEAKGNKCSHFFQLKNISFCGYHPKNNKYFGFITKHPADHRFACHVFVSEDSTKALAESVGRAFQQFYKQFVEYTCPTEDIYLE
chain 2: MSRSKRDNNFYSVEIGDSTFTVLKRYQNLKPIGSGAQGIVCAAYDAILERNVAIRKLSRPFQNQTHAKRAYRELVLMKCVNHKNIIGLLNVFTPQKSLEEFQDVYIVMELMDANLCQVIQMELDHERMSYLLYQMLCGIKHLHSAGIIHRDLKPSNIVVKSDCTLKILDFGLARTAGTSFMMTPYVVTRYYRAPEVILGMGYKENVDLWSVGCIMGEMVCHKILFPGRDYIDQWNKVIEQLGTPCPEFMKKLQPTVRTYVENRPKYAGYSFEKLFPDVLFPADSEHNKLKASQARDLLSKMLVIDASKRISVDEALQHPYINVWYDPSEAEAPPPKIPDKQLDEREHTIEEWKELIYKEVMDLEERTKNGVIRGQPSPLGAAVINGSQHPSSSSSVNDVSSMSTDPTLASDTDSSLEAAAGPLGCCR

Variants of: B1
Assay: BiFC (bimolecular fragment complementation), fluorescence measurement on co-transfected HEK293 cell populations; live HEK293 cells, transient co-transfection, N = 6; read off a plot
chain 1 R160A, chain 1 P161A, chain 1 L164A, chain 1 L166A showed a response of roughly 1700 arbitrary units.

— paper PMC4670726 (2015)
